{"source": "patent US20100040577", "test_system": "human recombinant CXCL10 (1-77)", "sequence (chain, as listed by the source)": "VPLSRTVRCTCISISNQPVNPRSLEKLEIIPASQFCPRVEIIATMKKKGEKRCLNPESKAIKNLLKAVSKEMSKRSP", "data": [{"substance": "active MMP9", "values": [{"measurement": "cleavage of CXCL10 (SELDI-TOF mass analysis)", "value": "MMP9 cleaved 9 amino acids from CXCL10"}]}, {"substance": "recombinant DPP4", "values": [{"measurement": "molecular weight difference after in vitro digestion (SELDI-TOF mass spectrometry)", "value": "The molecular weight difference (red number) between CXCL10 (1-77) and CXCL10 (3-77) is 0.2 KDa, corresponding to a 2 amino-acid difference"}]}, {"substance": "active MMP2", "values": [{"measurement": "cleavage of CXCL10 (SELDI-TOF mass analysis)", "value": "MMP2 did not alter the mass of CXCL10"}]}]}
